Experimental data reported in patent US9833497B2, “Human originated EGF domain proteins and use of the same” (CHENGDU SOURCEBIO LIMITED-LIABILITY COMPANY, priority 2013, dated 2017).

Experiments:
Assay type in all cases: cell-based
Proteus vulgaris = experiment: MIC against Gram-negative bacteria: Proteus vulgaris; settings: P. vulgaris; 10 h cultivation at 37° C.; 5×10^5 CFU/mL
Experimental: (§1) 1. Gram-negative bacteria, such as E. coli BL21, Pseudomonas aeruginosa, Klebsiella pneumonia, Enterobacter cloacae, Aeromonas hydrophila, Citrobacter diversus, Moraxella catarrhalis, Proteus mirabilis, Proteus vulgaris, Serratia marcescens, etc were streaked on solid LB medium and cultured respectively. Then, typical clones were picked, inoculated into common liquid LB medium respectively, and cultured at 37° C. with shaking at 185 rpm until the McFarland specific turbidity was 0.5. The bacterial culture of each of Gram-negative bacteria was centrifuged at 4000×g for 3 min, the supernatant was discarded, and the thalli were resuspended with fresh LB medium.
(§2) 2. The above-mentioned bacterial suspensions were diluted and inoculated into 96-well plates with the final concentration of the bacterial suspension being 5×10^5 CFU/mL per well.
(§3) 3. Each of the purified human-originated EGF domain proteins (PRT1 to PRT1498 in Table 1) was added to each of the above wells and subjected to two-fold serial dilution in concentration. Three parallel wells were set up for each concentration in the gradient.
(§4) 4. The above-mentioned 96-well plates were placed and cultured at 37° C. in shaking incubator shaking at 175 rpm. […] The minimal inhibitory concentration MIC is defined as the lowest concentration of the recombinant protein at which there is no growth of the bacteria.

Pseudomonas aeruginosa = experiment: MIC against Gram-negative bacteria: Pseudomonas aeruginosa; settings: P. aeruginosa; 10 h cultivation at 37° C.; 5×10^5 CFU/mL
Experimental: as §1, §2, §3, §4

Moraxella catarrhalis = experiment: MIC against Gram-negative bacteria: Moraxella catarrhalis; settings: M. catarrhalis; 10 h cultivation at 37° C.; 5×10^5 CFU/mL
Experimental: as §1, §2, §3, §4

E. coli DH5α = experiment: Antibacterial activity: MIC and growth curve against E. coli DH5α in 96-well plate; settings: minimal inhibitory concentration against E. coli DH5α; 96-well plate, 5×10^5 CFU/mL, 37° C., judged after 8 h
Experimental: 1. E. coli DH5α was exemplified. E. coli DH5α was streaked and cultured on LB solid medium. Then, a typical clone was picked and inoculated into common LB liquid medium, cultured at 37° C. with shaking at 185 rpm until the logarithmic growth phase was reached (OD600 of about 0.5). The bacterial culture was centrifuged at 4000×g for 3 min, the supernatant was discarded, and the thalli were resuspended with fresh LB medium.
2. The above-mentioned bacterial suspension was diluted and inoculated into a 96-well plate with the total volume of 100 μL per well and a bacterial count of 5×10^5 CFU/mL.
3. The recombinant protein hF VII-EGF1 was added to the above-mentioned wells with the final protein concentration in the well of the highest protein concentration being 50 μg/mL. Basing on this final concentration, a two-fold serial dilution was performed till a protein concentration gradient consisting of 50, 25, and 12.5 μg/mL was set up. Three parallel wells were set up for each concentration in the gradient.
as §4, with “plate was” for “plates were”, “rpm. Samples were taken every 30 min, the absorbance values were determined at 600 nm wavelength under a ultra violet spectrophotometer, and an inhibition curve was plotted.” for “rpm.”
According to the experimental procedures in Example 14, the minimal inhibitory concentrations (MIC, μg/mL) of the other human-originated EGF domain proteins (PRT2 to PRT1498 in Table 1) for E. coli DH5α were determined.

Aeromonas hydrophila = experiment: MIC against Gram-negative bacteria: Aeromonas hydrophila; settings: A. hydrophila; 10 h cultivation at 37° C.; 5×10^5 CFU/mL
Experimental: as §1, §2, §3, §4

Citrobacter diversus = experiment: MIC against Gram-negative bacteria: Citrobacter diversus; settings: C. diversus; 10 h cultivation at 37° C.; 5×10^5 CFU/mL
Experimental: as §1, §2, §3, §4

Klebsiella pneumonia = experiment: MIC against Gram-negative bacteria: Klebsiella pneumonia; settings: K. pneumonia; 10 h cultivation at 37° C.; 5×10^5 CFU/mL
Experimental: as §1, §2, §3, §4

Proteus mirabilis = experiment: MIC against Gram-negative bacteria: Proteus mirabilis; settings: P. mirabilis; 10 h cultivation at 37° C.; 5×10^5 CFU/mL
Experimental: as §1, §2, §3, §4

Enterobacter cloacae = experiment: MIC against Gram-negative bacteria: Enterobacter cloacae; settings: E. cloacae; 10 h cultivation at 37° C.; 5×10^5 CFU/mL
Experimental: as §1, §2, §3, §4

E. coli BL21 = experiment: MIC against Gram-negative bacteria: E. coli BL21; settings: E. coli BL21; 10 h cultivation at 37° C.; 5×10^5 CFU/mL
Experimental: as §1, §2, §3, §4

Serratia marcescens = experiment: MIC against Gram-negative bacteria: Serratia marcescens; settings: S. marcescens; 10 h cultivation at 37° C.; 5×10^5 CFU/mL
Experimental: as §1, §2, §3, §4

Molecule | MIC (μg/mL) P. vulgaris (Proteus vulgaris) [µg/mL] | MIC (μg/mL) P. aeruginosa (Pseudomonas aeruginosa) [µg/mL] | MIC (μg/mL) M. catarrhalis (Moraxella catarrhalis) [µg/mL] | MIC (E. coli DH5α) [µg/mL] | MIC (μg/mL) A. hydrophila (Aeromonas hydrophila) [µg/mL] | MIC (μg/mL) C. diversus (Citrobacter diversus) [µg/mL] | MIC (μg/mL) K. pneumonia (Klebsiella pneumonia) [µg/mL] | MIC (μg/mL) P. mirabilis (Proteus mirabilis) [µg/mL] | MIC (μg/mL) E. cloacae (Enterobacter cloacae) [µg/mL] | MIC (μg/mL) E. coli BL21 (E. coli BL21) [µg/mL] | MIC (μg/mL) S. marcescens (Serratia marcescens) [µg/mL]
PRT863 (protein, listed as Homo sapiens) CFCNGHADQCIPVHGFRPVKAPGTFHMVHGKCMCKHNTAGSHCQHCAPLYNDRPWEAADGKTGAPNECRT | 25 | 25 | 12.5 | 50 | 12.5 | 12.5 | 50 | 12.5 | 12.5 | 12.5 | 12.5
PRT845 (protein, listed as Homo sapiens) CQCNGHADTCNEQDGTGCPCQNNTETGTCQGSSPSDRRDCYKYQCAKCRESFHGSPLGGQQCYR | 12.5 | 25 | 25 | 25 | 25 | 12.5 | 25 | 12.5 | 12.5 | 12.5 | 50
PRT864 (protein, listed as Homo sapiens) CKCNGHADTCHFDVNVWEASGNRSGGVCDDCQHNTEGQYCQRCKPGFYRDLRRPFSAPDACKP | 12.5 | 12.5 | 25 | 12.5 | 25 | 12.5 | 25 | 50 | 50 | 12.5 | 50
